This is an account of results in article PMC11926874, “Patulin Detoxification by Evolutionarily Divergent Reductases of Gluconobacter oxydans ATCC 621” (Journal of Agricultural and Food Chemistry, 2025).

The target of one data set is T1, GOX0716 (Gluconobacter oxydans, UniProt Q5FT03).
T1 construct: recombinant N-terminal His-tagged protein
T1 sequence (Q5FT03 1-257): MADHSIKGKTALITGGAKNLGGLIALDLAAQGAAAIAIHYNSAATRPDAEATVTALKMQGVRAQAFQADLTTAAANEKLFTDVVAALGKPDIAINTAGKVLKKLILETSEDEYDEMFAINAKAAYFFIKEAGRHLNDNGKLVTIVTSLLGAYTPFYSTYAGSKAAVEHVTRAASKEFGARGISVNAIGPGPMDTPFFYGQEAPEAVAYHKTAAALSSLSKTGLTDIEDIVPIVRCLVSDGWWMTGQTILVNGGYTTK
The data set is described as follows: tryptophan fluorescence quenching. The class given is binding.

A further data set deals with T2, GOX1462 (Gluconobacter oxydans, UniProt Q5FQY5).
T2 construct: recombinant N-terminal His-tagged protein
T2 sequence (Q5FQY5 1-359): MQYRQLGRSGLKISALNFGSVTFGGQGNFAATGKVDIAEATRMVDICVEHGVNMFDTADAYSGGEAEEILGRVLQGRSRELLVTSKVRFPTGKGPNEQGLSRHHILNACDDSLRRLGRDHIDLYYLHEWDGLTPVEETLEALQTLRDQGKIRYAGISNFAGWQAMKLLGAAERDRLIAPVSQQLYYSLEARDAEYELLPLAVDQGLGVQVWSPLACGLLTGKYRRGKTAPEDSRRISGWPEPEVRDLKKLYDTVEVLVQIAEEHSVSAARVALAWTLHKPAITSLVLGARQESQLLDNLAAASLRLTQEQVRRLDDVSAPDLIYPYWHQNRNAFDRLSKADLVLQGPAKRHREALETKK
The data set can be described thus: tryptophan fluorescence quenching. The class given is binding.

Substrate in data set [1]: CCCCCC=O
The data set is described as follows: purified protein, by the assay type. Details: steady-state Michaelis-Menten kinetics of carbonyl substrate reduction, NADPH consumption at 340 nm, 25 °C. The following applies: 25.0 °C. On the procedure: (§1) For substrate specificity, kinetic measurements were performed at 25 °C in triplicate in 100 mM potassium phosphate buffer, pH 6.0 (for GOX0716) or pH 7.0 (for GOX1462). Substrate utilization was monitored by the decrease in the level of NADPH at 340 nm using a BioTek Epoch 2 microplate reader. Reactions were conducted in a total volume of 200 μL. The molar extinction coefficient of NADPH was determined by constructing a linear regression standard line using NADPH standards of known concentrations. One unit (1 U) of enzyme activity is defined as the amount of enzyme required to oxidize 1 μmol NADPH per minute. Stock solutions of substrates were prepared in dimethyl sulfoxide (DMSO). All kinetic data fitting was performed using nonlinear regression with GraphPad Prism, version 8. All data were fitted to the Michaelis–Menten equation. The kinetic parameters for each enzyme were determined at their respective pH optimum.

Substrate in data set [2]: CCC=O
The data set is described as follows: purified protein, by the assay type. Further details: steady-state Michaelis-Menten kinetics of carbonyl substrate reduction, NADPH consumption at 340 nm, 25 °C. The following applies: 25.0 °C. The protocol: as §1

Substrate in data set [3]: O=Cc1ccccc1
The data set is described as follows: purified protein, by the assay type. Details: steady-state Michaelis-Menten kinetics of carbonyl substrate reduction, NADPH consumption at 340 nm, 25 °C. The following applies: 25.0 °C. On the procedure:
as §1

Substrate in data set [4]: CCCCCCC=O
The data set is described as follows: purified protein, by the assay type. Details: steady-state Michaelis-Menten kinetics of carbonyl substrate reduction, NADPH consumption at 340 nm, 25 °C. The following applies: 25.0 °C. On the procedure: as §1

Substrate in data set [5]: CC(=O)C=O
The data set is described as follows: purified protein, by the assay type. The following applies: 25.0 °C. Details: steady-state Michaelis-Menten kinetics of carbonyl substrate reduction, NADPH consumption at 340 nm, 25 °C. On the procedure:
as §1

Substrate in data set [6]: O=CC(O)CO
The data set is described as follows: purified protein, by the assay type. Details: steady-state Michaelis-Menten kinetics of carbonyl substrate reduction, NADPH consumption at 340 nm, 25 °C. The following applies: 25.0 °C. On the procedure: as §1

Substrate in data set [7]: CCCC=O
The data set can be described thus: purified protein. The class given is biochemical, Gluconobacter oxydans. The following applies: NADPH.

Substrate in data set [8]: O=C1Nc2ccccc2C1=O
The data set is described as follows: purified protein. The class given is biochemical, Gluconobacter oxydans. The following applies: NADPH.

Substrate in data set [9]: O=C1C=C2C(=CCOC2O)O1
The data set is described as follows: purified protein. The class given is biochemical, Gluconobacter oxydans.

Substrate in data set [10]: O=C1C(=O)c2ccccc2-c2ccccc21
The data set is described as follows: purified protein. The following applies: NADPH. The class given is biochemical, Gluconobacter oxydans.

Substrate in data set [11]: CCCC=O
The data set is described as follows: purified protein, by the assay type. Details: steady-state Michaelis-Menten kinetics of carbonyl substrate reduction, NADPH consumption at 340 nm, 25 °C. As to conditions: 25.0 °C. The protocol:
as §1

Substrate in data set [12]: O=CCO
The data set can be described thus: purified protein, by the assay type. Further details: steady-state Michaelis-Menten kinetics of carbonyl substrate reduction, NADPH consumption at 340 nm, 25 °C. The following applies: 25.0 °C. The protocol:
as §1

Substrate in data set [13]: O=Cc1ccco1
The data set can be described thus: purified protein. The class given is biochemical, Gluconobacter oxydans. As to conditions: NADPH.

Where [14] appears, read: NADPH docked as the ring-opened aldehyde form: hydrogen bonds with catalytic Tyr61, Ser157 and Asn158.
Where [15] appears, read: NADPH docked as the ring-opened aldehyde form: hydrogen bonds with catalytic Tyr159 and Thr146, Tyr156, Glu201, Pro191, Pro189.

As to `NC(=O)C1=CN([C@@H]2O[C@H](COP(=O)(O)OP(=O)(O)OC[C@H]3O[C@@H](n4cnc5c(N)ncnc54)[C@H](OP(=O)(O)O)[C@@H]3O)[C@@H](O)[C@H]2O)C=CC1` [NADPH], the Kd on GOX0716 was found to be 20.5 ± 2.86 µM; at GOX1462 it was 30.3 ± 3.56 µM.

B1: GOX1462 (Gluconobacter oxydans 621H) (protein)
chain: MQYRQLGRSGLKISALNFGSVTFGGQGNFAATGKVDIAEATRMVDICVEHGVNMFDTADAYSGGEAEEILGRVLQGRSRELLVTSKVRFPTGKGPNEQGLSRHHILNACDDSLRRLGRDHIDLYYLHEWDGLTPVEETLEALQTLRDQGKIRYAGISNFAGWQAMKLLGAAERDRLIAPVSQQLYYSLEARDAEYELLPLAVDQGLGVQVWSPLACGLLTGKYRRGKTAPEDSRRISGWPEPEVRDLKKLYDTVEVLVQIAEEHSVSAARVALAWTLHKPAITSLVLGARQESQLLDNLAAASLRLTQEQVRRLDDVSAPDLIYPYWHQNRNAFDRLSKADLVLQGPAKRHREALETKK
notes: recombinant N-terminal His-tagged protein
As to B1, the Km in [1] came to 513 ± 141 µM; in data set [2], 164 ± 13.7 µM; in [3] it was 258 ± 37.7 µM; in [4] it was 178 ± 15.6 µM; in data set [5], 1990 ± 238 µM; in data set [6] it was 483 ± 85.9 µM. The Km in the data set “purified protein [7]” is 139 ± 14.4 µM; in “purified protein [8]” it was 107 ± 17.1 µM; in the data set “purified protein [9]” (setting [14]) it was 178 ± 25.4 µM; in the data set “purified protein [10]” it was 31.9 ± 4.85 µM. Besides, the kcat was 0.0251 ± 0.00251 s⁻¹ in data set [1]; 0.0228 ± 0.000523 s⁻¹ in data set [2]; 0.0184 ± 0.000807 s⁻¹ in [3]; 0.027 ± 0.000671 s⁻¹ in data set [4]; 0.221 ± 0.0159 s⁻¹ in [5]; 0.0181 ± 0.00121 s⁻¹ in [6]. The turnover number (kcat) in “purified protein [7]” came out at 0.0241 ± 0.000654 s⁻¹; in the data set “purified protein [8]”, 0.163 ± 0.00536 s⁻¹; in the data set “purified protein [9]” (setting [14]), 0.0389 ± 0.00145 s⁻¹; in the data set “purified protein [10]” it was 5.79 ± 0.234 s⁻¹. Besides, the kcat/Km in data set [1] was found to be 48.9 ± 14.3 M⁻¹ s⁻¹; in [2], 139 ± 12 M⁻¹ s⁻¹; in data set [3], 71.3 ± 10.9 M⁻¹ s⁻¹; in [4] it was 152 ± 13.8 M⁻¹ s⁻¹; in data set [5], 111 ± 15.5 M⁻¹ s⁻¹; in data set [6], 37.5 ± 7.12 M⁻¹ s⁻¹. Also, the kcat/Km in the data set “purified protein [7]” was 173 ± 18.5 M⁻¹ s⁻¹; in “purified protein [8]” it was 1520 ± 248 M⁻¹ s⁻¹; in the data set “purified protein [9]” (setting [14]), 219 ± 32.3 M⁻¹ s⁻¹; in “purified protein [10]”, 182000 ± 28600 M⁻¹ s⁻¹.

B2: GOX0716 (Gluconobacter oxydans 621H) (protein)
chain: MADHSIKGKTALITGGAKNLGGLIALDLAAQGAAAIAIHYNSAATRPDAEATVTALKMQGVRAQAFQADLTTAAANEKLFTDVVAALGKPDIAINTAGKVLKKLILETSEDEYDEMFAINAKAAYFFIKEAGRHLNDNGKLVTIVTSLLGAYTPFYSTYAGSKAAVEHVTRAASKEFGARGISVNAIGPGPMDTPFFYGQEAPEAVAYHKTAAALSSLSKTGLTDIEDIVPIVRCLVSDGWWMTGQTILVNGGYTTK
notes: as for B1
For the molecule B2, the Michaelis-Menten constant (Km) in [11] amounted to 351 ± 40.4 µM; in data set [1], 509 ± 71.7 µM; in [2] it was 417 ± 52.1 µM; in data set [12], 607 ± 110 µM; in [4], 637 ± 72.8 µM; in the data set “purified protein [13]”, 94.8 ± 8.91 µM. The Km was determined as 282 ± 40.3 µM in “purified protein [8]”, 1300 ± 213 µM in “purified protein [9]” (setting [15]) and 46.9 ± 8.17 µM in the data set “purified protein [10]”. In addition, the kcat in [11] was determined as 0.0339 ± 0.00135 s⁻¹; in data set [1], 0.00946 ± 0.000516 s⁻¹; in data set [2], 0.0442 ± 0.00201 s⁻¹; in data set [12] it was 0.00643 ± 0.000459 s⁻¹; in data set [4], 0.0402 ± 0.00191 s⁻¹; in “purified protein [13]”, 0.0103 ± 0.000223 s⁻¹. Further, the catalytic constant (kcat) in the data set “purified protein [8]” was 0.127 ± 0.00588 s⁻¹; in “purified protein [9]” (setting [15]) it was 0.0468 ± 0.00402 s⁻¹; in “purified protein [10]”, 3.14 ± 0.181 s⁻¹. For the same molecule, the kcat/Km stood at 96.6 ± 11.8 M⁻¹ s⁻¹ in [11]; 18.6 ± 2.81 M⁻¹ s⁻¹ in data set [1]; 106 ± 14.1 M⁻¹ s⁻¹ in data set [2]; 10.6 ± 2.06 M⁻¹ s⁻¹ in [12]; 63.1 ± 7.81 M⁻¹ s⁻¹ in data set [4]; 109 ± 0.0964 M⁻¹ s⁻¹ in the data set “purified protein [13]”. Further, the kcat/Km amounted to 450 ± 67.6 M⁻¹ s⁻¹ in “purified protein [8]”, 36 ± 6.66 M⁻¹ s⁻¹ in “purified protein [9]” (setting [15]) and 67000 ± 12300 M⁻¹ s⁻¹ in “purified protein [10]”.

Broadly, the Kd is the concentration at which binding is half-saturated. Higher therefore signals a looser complex. As usually defined, the Km is the substrate concentration at which the rate is half of its maximum. Broadly, the kcat is the maximal rate divided by the concentration of active sites. The term kcat/Km denotes the second-order rate constant that governs catalysis at low substrate concentration.
